Assay results published in patent US7419813B2, “Fructosyl peptide oxidase” (Kikkoman Corporation, priority 2001, dated 2008).

Format: physicochemical
Settings: pH 8
Protocol: For example, 200 mM potassium phosphate buffer (pH 8.0) is used for a treatment at 45° C. for 10 minutes to determine the remaining activities of the oxidases of the invention. The oxidases of the invention having high stability at a high temperature range are particularly preferable for industrial use. The oxidases of the invention may, for example, have a remaining activity of 50% or higher, preferably 70% or higher, and more preferably 80% or higher under the above-described conditions. For example, 200 mM potassium phosphate buffer (pH 8.0) is used for a treatment at 45° C. for 10 minutes. Then, the remaining activities of the enzymes of the invention are determined. The oxidases of the invention having high stability at a high temperature range are particularly preferable for industrial use. The oxidases of the invention that have less action on ε-fructosyl lysine may, for example, have a remaining activity of 50% or higher, preferably 70% or higher, more preferably 80% or higher under the above-described conditions. […] Next, the physiochemical properties of these oxidases were determined. […] Each crude enzyme sample was heat-treated at 45° C. for 10 minutes, and then its activity for fructosyl valyl histidine was determined and compared to the activity before treatment. […]

B1: Eupenicillium terrenum ATCC 18547: fructosyl peptide oxidase produced by Eupenicillium terrenum ATCC 18547 with less action on ε-fructosyl lysine; amino acid sequence SEQ ID NO: 3 (protein, listed as Eupenicillium terrenum)
chain: MAHSRASTKVVVVGGGGTIGSSTALHLIRSGYTPSNITVLDVYKTPSLQSAGHDLNKIMGIRLRNGPDLQLSLESLDMWQNDELFKPFFHQVGMIDCSSSKEGIENLRRKYQTLLDAGIGLEKTNVWLESEDEILAKAPNFTREQVKGWKGLFCTDGGWLAAAKAINAIGIFLQDKGVKFGFGGAGTFQQPLFAADGKTCIGLETTDGTKYFADKVVLAAGAWSPTLVDLEDQCVSKAWVFAHIQLTPKEADAYKNVPVVYDGEYGFFFEPNEYGVIKVCDEFPGFSRFKLHQPYGAASPKMISVPRSHAKHPTDTYPDASEVTIRKAIARFLPEFKDKELFNRTMCWCTDTADANLLICEHPKWKNFILATGDSGHSFKLLPNIGKHVVELLEGSLSQEMAGAWRWRPGGDALRSRRGAPAKDLAEMPGWKHDAHL
With B1 the “remaining activity following heat treatment at 45° C. for 10 minutes” value was “approximately 100%”.
